Consider four sequences from the supplement of paper PMC5998384.

Data set [1] has as its system HeLa Kyoto. The data set can be described thus: solubility in G1/S (NP-40 vs SDS abundance) (log2 ratio); higher = more soluble. The following applies: cell cycle stage: G1/S.
For data set [2], the system named is HeLa Kyoto. In words: melting temperature (median over replicates), in situ; higher = more thermally stable.
For data set [3], the system named is HeLa Kyoto. The data set can be described thus: thermal stability score vs G1/S (z-score of summed log2 fold changes over temperatures); higher = more thermally stable than in G1/S.
Data set [4] has as its system HeLa Kyoto. The data set can be described thus: solubility change mitosis vs G1/S (difference of NP-40 vs SDS log2 ratios) (log2 ratio difference); higher = more soluble in mitosis.
The mark [5] stands for this setting: cell cycle stage: early G1 (4.5 h after nocodazole release).
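For melting temperature (median over replicates), in situ in this document: HeLa Kyoto cells synchronized by double thymidine or nocodazole block, proteins quantified by TMT10plex mass spectrometry, three independent biological replicates.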
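For solubility change mitosis vs G1/S (difference of NP-40 vs SDS log2 ratios) in this document: synchronized HeLa Kyoto cells (double thymidine block for G1/S, nocodazole release for mitosis), protein amounts in NP-40 versus SDS lysates quantified by mass spectrometry, three biological replicates.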
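For solubility in G1/S (NP-40 vs SDS abundance) in this document: HeLa Kyoto cells arrested at G1/S by double thymidine block, proteins quantified by TMT10plex mass spectrometry in mild NP-40 versus SDS extracts, three biological replicates.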
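For thermal stability score vs G1/S (z-score of summed log2 fold changes over temperatures) in this document: synchronized HeLa Kyoto cells, proteins quantified by TMT10plex mass spectrometry, three biological replicates, mitosis taken 0.5 h after nocodazole release, G1/S directly after double thymidine block.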

With “MGRKLDPTKEKRGPGRKARKQKGAETELVRFLPAVSDENSKRLSSRARKRAAKRRLGSVEAPKTNKSPEAKPLPGKLPKGISAGAVQTAGKKGPQSLFNAPRGKKRPAPGSDEEEEEEDSEEDGMVNHGDLWGSEDDADTVDDYGADSNSEDEEEGEALLPIERAARKQKAREAAAGIQWSEEETEDEEEEKEVTPESGPPKVEEADGGLQINVDEEPFVLPPAGEMEQDAQAPDLQRVHKRIQDIVGILRDFGAQREEGRSRSEYLNRLKKDLAIYYSYGDFLLGKLMDLFPLSELVEFLEANEVPRPVTLRTNTLKTRRRDLAQALINRGVNLDPLGKWSKTGLVVYDSSVPIGATPEYLAGHYMLQGASSMLPVMALAPQEHERILDMCCAPGGKTSYMAQLMKNTGVILANDANAERLKSVVGNLHRLGVTNTIISHYDGRQFPKVVGGFDRVLLDAPCSGTGVISKDPAVKTNKDEKDILRCAHLQKELLLSAIDSVNATSKTGGYLVYCTCSITVEENEWVVDYALKKRNVRLVPTGLDFGQEGFTRFRERRFHPSLRSTRRFYPHTHNMDGFFIAKFKKFSNSIPQSQTGNSETATPTNVDLPQVIPKSENSSQPAKKAKGAAKTKQQLQKQQHPKKASFQKLNGISKGADSELSTVPSVTKTQASSSFQDSSQPAGKAEGIREPKVTGKLKQRSPKLQSSKKVAFLRQNAPPKGTDTQTPAVLSPSKTQATLKPKDHHQPLGRAKGVEKQQLPEQPFEKAAFQKQNDTPKGPQPPTVSPIRSSRPPPAKRKKSQSRGNSQLLLS [NOP2]”, the “solubility in G1/S (log2)” value in data set [1] was -2.12. Besides, the melting temperature in data set [2] (cell cycle stage: G1/S) stood at 55.4 °C; in data set [2] (cell cycle stage: mitosis) it was 53.9 °C. Also, the thermal stability score in data set [3] (setting [5]) is -0.377; in data set [3] (cell cycle stage: mitosis), -6.17. For the same sequence, the “solubility change mitosis (log2)” value in data set [4] came to 0.976.

For the sequence “MGRRRAPAGGSLGRALMRHQTQRSRSHRHTDSWLHTSELNDGYDWGRLNLQSVTEQSSLDDFLATAELAGTEFVAEKLNIKFVPAEARTGLLSFEESQRIKKLHEENKQFLCIPRRPNWNQNTTPEELKQAEKDNFLEWRRQLVRLEEEQKLILTPFERNLDFWRQLWRVIERSDIVVQIVDARNPLLFRCEDLECYVKEMDANKENVILINKADLLTAEQRSAWAMYFEKEDVKVIFWSALAGAIPLNGDSEEEANRDDRQSNTTKFGHSSFDQAEISHSESEHLPARDSPSLSENPTTDEDDSEYEDCPEEEEDDWQTCSEEDGPKEEDCSQDWKESSTADSEARSRKTPQKRQIHNFSHLVSKQELLELFKELHTGRKVKDGQLTVGLVGYPNVGKSSTINTIMGNKKVSVSATPGHTKHFQTLYVEPGLCLCDCPGLVMPSFVSTKAEMTCSGILPIDQMRDHVPPVSLVCQNIPRHVLEATYGINIITPREDEDPHRPPTSEELLTAYGYMRGFMTAHGQPDQPRSARYILKDYVSGKLLYCHPPPGRDPVTFQHQHQRLLENKMNSDEIKMQLGRNKKAKQIENIVDKTFFHQENVRALTKGVQAVMGYKPGSGVVTASTASSENGAGKPWKKHGNRNKKEKSRRLYKHLDM [LSG1]”, the “solubility in G1/S (log2)” value in data set [1] was -0.366. Also, the melting temperature in data set [2] (cell cycle stage: G1/S) and in data set [2] (cell cycle stage: mitosis) was 49 °C each time. The thermal stability score in data set [3] (setting [5]) worked out at 0.926; in data set [3] (cell cycle stage: mitosis), 1.89. Also, the “solubility change mitosis (log2)” value in data set [4] was determined as 0.0936.

In the case of “MGRTSKDKRDVYYRLAKENGWRARSAFKLLQLDKEFQLFQGVTRAVDLCAAPGSWSQVLSQKIGGQGSGHVVAVDLQAMAPLPGVVQIQGDITQLSTAKEIIQHFKGCPADLVVCDGAPDVTGLHDVDEYMQAQLLLAALNIATHVLKPGGCFVAKIFRGRDVTLLYSQLQVFFSSVLCAKPRSSRNSSIEAFAVCQGYDPPEGFIPDLSKPLLDHSYDPDFNQLDGPTRIIVPFVTCGDLSSYDSDRSYPLDLEGGSEYKYTPPTQPPISPPYQEACTLKRKGQLAKEIRPQDCPISRVDTFPQPLAAPQCHTLLAPEMEDNEMSCSP [FTSJ1]”, the “solubility in G1/S (log2)” value in data set [1] is 0.332. For the same sequence, the melting temperature in data set [2] (cell cycle stage: G1/S) turned out to be 51.4 °C; in data set [2] (cell cycle stage: mitosis), 50.5 °C. Further, the values for the thermal stability score in data set [3] (setting [5]) and in data set [3] (cell cycle stage: mitosis) were -0.919 and -0.299, respectively. Moreover, the “solubility change mitosis (log2)” value in data set [4] worked out at 0.07.

“MGRTYIVEETVGQYLSNINLQGKAFVSGLLIGQCSSQKDYVILATRTPPKEEQSENLKHPKAKLDNLDEEWATEHACQVSRMLPGGLLVLGVFIITTLELANDFQNALRRLMFAVEKSINRKRLWNFTEEEVSERVTLHICASTKKIFCRTYDIHDPKSSARPADWKYQSGLSSSWLSLECTVHINIHIPLSATSVSYTLEKNTKNGLTRWAKEIENGVYLINGQVKDEDCDLLEGQKKSSRGNTQATSHSFDVRVLTQLLLNSDHRSTATVQICSGSVNLKGAVKCRAYIHSSKPKVKDAVQAVKRDILNTVADRCEMLFEDLLLNEIPEKKDSEKEFHVLPYRVFVPLPGSTVMLCDYKFDDESAEEIRDHFMEMLDHTIQIEDLEIAEETNTACMSSSMNSQASLDNTDDEQPKQPIKTTMLLKIQQNIGVIAAFTVAVLAAGISFHYFSD [ODR4]”: in data set [1], the “solubility in G1/S (log2)” value was -0.0468. Also, the melting temperature turned out to be 50.6 °C in data set [2] (cell cycle stage: G1/S) and 51.1 °C in data set [2] (cell cycle stage: mitosis). The thermal stability score in data set [3] (setting [5]) was 0.605; in data set [3] (cell cycle stage: mitosis), 0.226. The “solubility change mitosis (log2)” value in data set [4] was -0.0887.
